Measured values: PMC5777258, “Phosphorylation of human enhancer filamentation 1 (HEF1) stimulates interaction with Polo-like kinase 1 leading to HEF1 localization to focal adhesions” (The Journal of Biological Chemistry, 2017)
Square brackets hold non-standard residues; d marks the D form. Ends that are not written are not given here. pT = C[C@@H](OP(=O)(O)O)[C@H](N)C(=O)O

Tests used:
[1] = target: HEF1, endogenous (UniProt Q14511); assay: GST pull-down (bead-conjugated GST-PBD) with anti-HEF1 immunoblot, bands quantified with ImageJ; conditions: HeLa total cell lysate, parent: 1.0
[2] = target: T1, Polo box domain of mouse Plk1 (residues 367-603), for crystallization (mouse, UniProt Q07832 367-603); assay: crystal structure; Plk1 PBD (10 mg/ml) with pThr-804 peptide added in a 1:3 molar ratio, incubated overnight; sitting-drop vapor diffusion at 295 K, 0.1 M sodium citrate pH 5.5, 15% PEG 6000; 2.9 Å; conditions: both partners purified
T1 construct: Polo box domain of mouse Plk1, Swiss Prot entry Q07832, residues 367-603; residues 371-593 are in the final model; TEV site ENLYFQS between the tag and the PBD, cleaved between Q and S: a serine is left before the PBD; also called Plk1 PBD; Plk1-PBD; source: E. coli BL21 (DE3) CodonPlus RIL, purified (Ni-NTA, TEV digestion, Superdex-75 gel filtration); not shown: His6, N-terminal, cleaved
T1 sequence (Q07832 367-603): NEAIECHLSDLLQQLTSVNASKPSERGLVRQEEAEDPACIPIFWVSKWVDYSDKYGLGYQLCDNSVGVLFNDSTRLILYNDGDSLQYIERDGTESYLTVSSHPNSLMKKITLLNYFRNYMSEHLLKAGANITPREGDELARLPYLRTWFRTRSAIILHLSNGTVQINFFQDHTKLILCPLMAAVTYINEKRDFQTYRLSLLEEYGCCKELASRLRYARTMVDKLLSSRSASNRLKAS

HEF1, endogenous, sequence (Q14511 whole entry, the tested form may be a part): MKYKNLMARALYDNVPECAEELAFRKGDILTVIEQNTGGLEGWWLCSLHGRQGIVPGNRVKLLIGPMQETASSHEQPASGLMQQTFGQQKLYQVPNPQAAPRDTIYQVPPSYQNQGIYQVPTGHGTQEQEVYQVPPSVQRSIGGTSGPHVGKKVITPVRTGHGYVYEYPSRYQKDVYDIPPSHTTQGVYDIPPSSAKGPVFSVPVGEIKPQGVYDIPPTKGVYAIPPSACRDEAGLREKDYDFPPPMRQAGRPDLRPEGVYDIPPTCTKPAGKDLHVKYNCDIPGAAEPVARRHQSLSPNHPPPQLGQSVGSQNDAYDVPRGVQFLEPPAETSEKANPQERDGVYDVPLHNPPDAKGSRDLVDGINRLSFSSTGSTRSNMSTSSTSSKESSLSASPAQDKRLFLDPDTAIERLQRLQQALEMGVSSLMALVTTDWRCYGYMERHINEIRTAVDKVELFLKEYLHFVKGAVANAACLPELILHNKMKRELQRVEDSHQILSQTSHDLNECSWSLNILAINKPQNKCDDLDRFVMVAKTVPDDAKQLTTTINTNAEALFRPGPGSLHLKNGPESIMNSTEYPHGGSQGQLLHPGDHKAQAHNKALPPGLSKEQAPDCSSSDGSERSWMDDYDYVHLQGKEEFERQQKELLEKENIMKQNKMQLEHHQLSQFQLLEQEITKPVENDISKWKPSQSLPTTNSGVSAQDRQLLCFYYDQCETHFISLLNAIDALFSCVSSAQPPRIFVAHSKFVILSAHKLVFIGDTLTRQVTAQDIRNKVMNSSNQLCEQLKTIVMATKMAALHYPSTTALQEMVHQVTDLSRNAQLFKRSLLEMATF

| Molecule | ratio to parent ([1]; asynchronously growing (Async.)) | ratio to parent ([1]; nocodazole (Noc)-treated (M phase)) | ratio to parent ([1]; thymidine (Thy)-treated (S phase)) | binding result [2] |
| --- | --- | --- | --- | --- |
| GST-Plk1 PBD WT (Polo box domain of Plk1) H538A; K540M | 0.1 | 0.2 | 0.1 |  |
| LHYPS[pT]TALQE (HEF1 (NEDD9), human, aa 799-809; 800-HYPSpTTAL-807 is in the final model; source: synthetic peptide) [HEF1 pThr-804 peptide (799-LHYPSpTTALQE-809), free, for crystallization] |  |  |  | binds |
